Experiments:
[1] = biological target: T1, Hst-5 synthetic peptide K17R
T1 chain: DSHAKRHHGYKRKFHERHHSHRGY

[2] = biological target: T2, Hst-5 synthetic peptide K17L
T2 chain: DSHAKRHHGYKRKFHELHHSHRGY

B1: purified recombinant Sap2 (C. albicans secreted aspartic protease 2) (protein)
chain: QAVPVTLHNEQVTYAADITVGSNNQKLNVIVDTGSSDLWVPDVNVDCQVTYSDQTADFCKQKGTYDPSGSSASQDLNTPFKIGYGDGSSSQGTLYKDTVGFGGVSIKNQVLADVDSTSIDQGILGVGYKTNEAGGSYDNVPVTLKKQGVIAKNAYSLYLNSPDAATGQIIFGGVDNAKYSGSLIALPVTSDRELRISLGSVEVSGKTINTDNVDVLLDSGTTITYLQQDLADQIIKAFNGKLTQDSNGNSFYEVDCNLSGDVVFNFSKNAKISVPASEFAASLQGDDGQPYDKCQLLFDVNDANILGDNFLRSAYIVYDLDDNEISLAQVKYTSASSISALT
[1]
  cleavage at the C-terminal side of residue 17 by Sap2 (mass spectrometry): Substitutions at K17 did lead to a significant decrease in signals from fragments formed by cleavage at the C-terminal side of K17, however, unlike Sap9, Sap2 still cleaved K17L and K17R at this site
[2]
  cleavage at the C-terminal side of residue 17 by Sap2 (mass spectrometry): Substitutions at K17 did lead to a significant decrease in signals from fragments formed by cleavage at the C-terminal side of K17, however, unlike Sap9, Sap2 still cleaved K17L and K17R at this site

— patent US20170291930
